According to a protein production outcome set (Wang et al. 2014):

Experiment: label from the status in PepcDB records
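Note: failed if final PepcDB status was selected cloned or expressed and not failed if soluble or beyond.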

Sequence | protein production
MQIFLLFLSFAKAIHKIILIYGETAFPTVCSALQIYSLMKLKTLICATTAFWACCSCTSGELSPVDYVDPFIGTGFHGHTYPGATVPFGAVQLSPDTRAGNWDACSGYHYNDTTLKGFSHTHLSGTGCIDLGDILFRPTTLKPDLTTESIYQPAAFSHKDEDASAGYYSVVLKEEGIKAELTVTAHAGMHRYTFSSGKEASIIIDLTHLLDNEYIYEAELEQTAANEITGMRRTRGWTDNQYVYFVAQFSKPFQAIDFIQNKKMVSAGVKLNGTDLQACLSFDNSNGEPVIAKVGLSIVSEKNARENLETEVIGFDFDAVRSAARSAWEQALSAITVKGGNTDDLKNFYTAMYHSMVVPNVVSDVNGEYRRHNMEIGQLPKGKVQYSTFSLWDTFRAWNPLMTLIDTTLVNNMINSFLDIYESSGELPIWPLSAGETGTMIGYHAVSVIADAYMKGIRGFDAEKALEAMVVSSEKNKKGADYYIQNGFIPSNIKKESISCLLEFAYDDWCIARMAQEMGKDDIYQKYIQRSQNYINVFDGNTKFFRPKRMDGNWETPFNPIEIGRAYTEATAWQYRFFVPHDVSGMAQLFGGKKEFITALDSIFTVESDVHGDLVDITGLIGQYVHGNEPSHHIAYLYDYVGQPWKTQEMTRRLLHEMYAPTPEGIIGNEDCGQMSGWYILSSLGIYSVCPGSNEFALTTPLFEKAVVNLANRKTLTILANNPKKNVYITKVELNGQPIDVNFITYAQLMEGGELRFTLSDKPNMERGVSSEASPYSYTKDEVVSIPYVDKDLNLFMDKVTVALATTTKDAEIRYTLDGSEPTEQSALYEQPFELDKTTLIKAKGFKEGLRSSRTLSISATKAELKAALSVNPTQNGTSYKYFEGTYQKVADVEKSPLLESGVMPEPSIKGAKQEDHFGYIFSGLINVPEDGVYTFQTRSDDGSVLYIHDEQVVNNDASHAAIPATGMVALKKGFHPYKLYYFEDYEGEYLSWAWKLPSAEKLAPIPASALFVK | failed
MSVKRVLRNTIRKEKEENRVTEPLTETPELSAKYAWFFDLDGTLAEIKPHPDQVVVPDTILQGLQLLATASDGALALISGRSMVELDALAKPYRFPLAGVHGAERRDINGKTHIVHLPDAIARDISVQLHTVIAQYPGAELEAKGMAFALHYRQAPQHEDALMTLAQRITQIWPQMALQQGKCVVEIKPKGTSKGEAIAAFMQEAPFIGRTPVFLGDDLTDESGFAVVNRLGGMSVKIGTGATQASWRLAGVPDVWSWLEMITTALQQKRENNRSDDYESFSRSI | failed
MYHILFRRKSIVPAYNESTTIVSSIDSLLHLDYEAYEIIVVDDGSSDNTSDVLKEEFALMKISNTIDSIIATQTCKDVFQRQVGKVKLTLIVKENGGKGDALNMGINAANYDYFLCLDADSMLQVDSLSQISKSIQVDPTVIAVGGLVQVAQGVKIEQGKVASYRLPWRIIPCAQALEYDSSFLGARIFLDYLRANLIISGAFGLFKKDLVKAVGGYDTQTLGEDMELVMKLHFFCRNNNIPYRICYETDAVCWSQAPTNLGDLRKQRRRWYLGLYQCLKKYKSIFANYRFGAVGSISYIYYILFELLTPFIECFGIVIIFLSLLFNQLNIPFFISLVSLYIFYCVLITLSSFLHRIYSQQLVIGILDIVKVFYIAVFRYLILHPVLTFVKVASVIGYKNKKMVWGHITREKQMKDFETSVT | failed
MATPPFDPSLSPLKTVAVIGLGTMGTGIAEVLARAGREVVGIDISEAAAGHAVTALEASTARAVQRERLTEQERGDILARFRTFTDLQAAADADLVIEVTPESYEIKQQVLRALDGIVRADTILATGTNALSVTRLAADSAHPERVLGLHFFNPAPAMKLVEVVSSVLTAPTAVAAVTNLALDLGKEPVAVGDRPGFVADGLLFGYLNQAAAMYEAKYASREDIDAAMKLGCGLPMGPLALLDLIGVDTARTVLEAMYAESRDRLHAPAPILKQLSEAGLTGRKSGRGFYSYDEPGSATVVRDALTPLSGGPGEQGRTVRSVGVAGSGTMASGIAEVFAKAGYEVVLAARSEEKAQTAKARIGKSLSRSVDKGRLTAEAAAETLDRITPAGSYDAFADVDLALEAVAEDLEIKQQLFATFDKVCKPGAILATTTSSLPVVACARATSRPQDVIGMHFFNPAPAMKLVEVVRTVLTGDDVHATVREVCAKIRKHPVDCGDRAGFIVNALLFPYLNNAIKMVQEHYATLDDIDAAMKLGGGYPMGPFELLDVVGLDVSLAIEKVLHREFRDPGLAPAPLLEHLVAAGCLGRKTGRGFREYAKR | failed
MAEDKTKPSELDQGKYDADDNVKIICLGDSAVGKSKLMERFLMDGFQPQQLSTYALTLYKHTATVDGRTILVDFWDTAGQERFQSMHASYYHKAHACIMVFDVQRKVTYRNLSTWYTELREFRPEIPCIVVANKIDADINVTQKSFNFAKKFSLPLYFVSAADGTNVVKLFNDAIRLAVSYKQNSQDFMDEIFQELENFSLEQEEEDVPDQEQSSSIETPSEEAASPHS | not failed
MEKQPNKLIREKSPYLLQHAWNPVDWHPWGEEAFSRARETGRPIFLSSGYSTCHWCHVMEHESFENAETAALLNRHFVPVKLDREEHPDVDHLYMMFVQATTGRGGWPMSVWMTPDLKPFFGGSYFPATERWGMPSFRSVLEHLANLWEHDRPRLLASAGSIMDQLSGLTRP | failed
VIKFSSEDCGTCHKMSHYDANVAEELGAEFVSVMLQDTEAYRKYRKVLLKQYPNKEGMGWPTYLLVTDPEGDFTIHGELKGGMPKGEFRTRLGALLA | failed
MVGKMNEWELALKNKDCKKLLELFDDYFDEVSEDKLEEELKRVGEVAVECEDFDLIHEIAHIYEHLGEAEKGIDLYKRIVEKRKGRNTEDYAEALYYLADAYDHFGMPEEALKTYEELLELEKRIGNKREIGLTLANLAIIKDELGNVEEAIKLMEEARKIFEELKDENNYLISLIDLAHFKYELGEYEEAMKLIREVLRNPVDKEIEVNARLVESEIYAGERKYKEAAISLRNALQRSEDDEELFSLVFDSLTEFLEGLFNESRYRELVEVSPLFAELFEDDTKYFFNAIKGLAEWRLGNEKAREEFEENYKNIQNEELKALLDEWRRPKLSLGLNL | failed
MQFIEKIGIVLATYNPNLEYFEKQIQSIKQQSWKNWVCHIVDDCSHSEYQVGIKNIIDNDPRFICHFHSHNLNHYYNFERGLKYCAQDKSITAISLADQDDIWHDDKLKILLKKLRSQKAVLIHSDLELINSYDQTIHPSAWDFEGRKPHKLSHDLLLLRNVVTGCSVLFCTSLLTDVLPFPPQNKISWYHDWWIALVASHRGKIVHIHKPLVWYRIHNANNVGVLKDSGKIHCELLLLCRKKFKINGNSYLVHRDFSKAFYRRFKRELNELGYTNPFDDRKLDFGWHILKLLYKSLLVGYNSEGAALRIGVLKLIFDIQRSYRIILYHCLKTFKSYYKNSQ | failed
MPYKTKSDLPESVKHVLPSHAQDIYKEAFNSAWDQYKDKEDRRDDASREETAHKVAWAAVKHEYAKGDDDKWHKKS | not failed
MKKLNTNKLTEEQVNLFKNNLVYLATVDADGNPQVGPKGSMTVLDPSHLQYLEKTKGEAYENIKRGSKVALVAADVPSHTAVRVLATAEVHEDDDYAKKVLAKTEFPNAFVVNLNIEEVFA | not failed
MDIAGYLSFFFASFTTLFIIIDPPGNLPIFIALTERFSDEYREKISKRATIIAFLILFITMVTGGKILDYFGVSISSLKIAGGILLFISSVDILLGGTRREAYKRRAEESIDVDSIAVFPLALPLYTGPGAITAGIVLYSQAGDVVMKLLVVLSAALVYSIVRLSHIYSAPIIRLLGRSGADIAARILAIFLAAIAVEFVFDGLAEKLVSMDL | failed
MEVISSFYLFLEILGTVAFAISGTVVGINHKLDIFGILVMSVITAVGGGIFRDLLLGATPPTALKSPFFIVISIIASIVAMLVALIIKSRREALSIFKAARFYNNLLLVSDAIGLGIFTVLGIDAGIAHGYSQNIFFIVFLGVLTGVGGGMIRDVIANQVPMIFRENIYALPCIIGGILYVYLQSVISHNLALFISVIFIVLIRIISEQRKLNLPRIEY | failed
MKEKEYLFSLDMKVRDYECDLQGVVNNSNYQRYMEHTRHEFWESLGDNFGQMHEKGLDAFVYKVTITFKQSLRSGDRFRSCLTCHKKGPKLIFMQDIIREDGVMAARGEVEVVAVQDGVLTRGEYFDVLMKDILSKTTKLEHHHHHH | not failed
